The target of this assay is recombinant MH8SR-tagged PfKelch13^337-726 (Plasmodium falciparum). The assay can be described thus: SEC. On the technique in general: Size exclusion chromatography separates by hydrodynamic size, large species first.

Several values for one entry are separate records, joined by “and”; a condition that tells them apart may be missing. Equal values may be shown once.

In general, stoichiometry N refers to the number of molecules, sites or subunits per partner or assembly.

With “recombinant MH8SR-tagged PfKelch13^337-726 (domain or fragment)”, the stoichiometry N is 2 and 4.

The values are drawn from article PMC8600086.
